# The nanobody polyreactivity screen of Harvey et al. (2022)
# Experiment: yeast display, Sf9 membrane polyspecificity reagent, FACS + sequencing; frameworks hold sequencing errors
# Summary of the method: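 Sorting gates, low and high (top ~1%), were placed on anti-HA fluorescence to track expression and on streptavidin fluorescence to track reagent binding. A clone's polyreactivity label is taken from the gate it came out of. The reagent was 10% biotinylated, detergent-solubilized Sf9 membrane, applied for 1 hour at 4 °C to galactose-induced yeast display cells.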
row,Sequence,polyreactivity (PSR sort gate)
1,QVQLVESGGGLVQAGGSLRLSCAASGYTFSFYAMGWYRQAPGKERELVAAISSSDGTTYYADSEKGRFTISRDNAKNTVYLQMNSLKPEDTAVYYCNTRYVRQVVGTYTLKTRYYWGQGTQVTVSS,high polyreactivity
2,QVQLQESGGGLVQAGGSLLLSCAASGTICDSGLMGWYRQAPGKERELVDVISSGGITNYADSVKGRYTISRDNAKNTVYMQMNSLKPEDTAVYWGQGPQVTVSS,low polyreactivity
3,QVKLVESGGGLVQAGGSLRLSCAASGRIFVSKAMGWYRQAPGKERELVAAISKRGASTYYADSVKGRFTISRDKAKNPVYLQINSLKPEDTEVYYCNVVTTGGPNYDYWGQGTQVTVSS,high polyreactivity
4,QVQLVESGGGLVQAGGSLRLSCAASGSIFLANAMGWYRQAPGKERELVAAINYADSVKGRFTISRDNAKNTVYLQMNSLKPEDTAVYYCYSKYDYWGQGTQVTVSS,low polyreactivity
5,QVQLVESGGGLVQAGGSLRLSCAASGLIFVSYAMGWYRQAPGKERELVAAISSGGSTYYADSVKGRFTISRDNAKNTVSLQMTSLKPEDTAVYYCNADGFYSWLYDYWGQGTQVTVSS,low polyreactivity
6,QVQLVESGGGLVQAGGSLRLSCAASGRTSYTYVMGWYRQAPGKERELVAAIRLSGGNTYYADPVKGRFTISRDNAKNTVYLQMNSLKPEDTAVYYCAAQYWRHRKAYGYWGQGTQVTVSS,high polyreactivity
7,QVQHVESAGGLVQAGGSLRLSCAASGRTFDYNAMGWYRQAPGKERELVAAISWRGGNTYYADSVKGRFTISRDNAKNTVYLQMNSLKPEDTAVYYCGAVYRYSTRNYGYWGQGTQVTVSS,high polyreactivity
8,QVQLVESGGGLVQAGGSLRLSCAASGRISQGYAMGWYRQAPGKERELVAGISRSGGSTYYADSVKGRFTISRDNAKNTVYLQMNSLKPEDTAVYYCAARVRGRNASDYDYYYWGQGSQVTVSS,high polyreactivity
9,QVQLVESGGGLVQAGGSLRLSCAASGSTFSVNAMGWYRQAPGKEREFVAAIRWPGGSTYYADSVKGRFTFSRDKAKNTVYLQMNSLKPEDTAVYYCAARIKYRYDWGQGTQVTVSS,low polyreactivity
10,QVQLVESGGGLVPAGGSLRLICAGSAFTFRSYAIGWYRQAPGQERELVAAISLGGTSTYYADSVKGRFTISRDNAKNTVYLQMNSLKPEDTAVYSCAARSYGHYGYWGQGTQVTVSS,high polyreactivity
11,QVQLVESGGGFVQAGGSLRLSCAASGFTFVGYAMGWYRQAPGKERELVAAITRRGGSTYYADSVKGRFTISRDNAKNTVYLQMNSLKPEDTAVYYCNKASYRISVPRYDYWGQGTQVTVSS,high polyreactivity
12,QVQLVESGGGLVQAGGSLRLSCAASGSTFSKNAMAWYRQAPGKERELVASISSSGGSTYYADSVKGRFTISRDTAKNTVYLQLNSLKPEDTAVSYCATRRGRGYYYWGQGTQVTVSS,high polyreactivity
13,QVQLVESGGGLVQAGASLRLSCAASGSIFGGYGMGWYRQAPGKERELVAAITSRVGSTYYADSVKGRFTSSRDNAKNTVYLQLNSLNPEDTAVYYCAAKRIYSWGRWTGDYWGQGTQVTVSS,high polyreactivity
14,QVQLVESGGGLVQAGGSLRLSCAASGSISGYYAMGWYRQAPGKERELVASIRYTGARTYYADSVKGRFTSSRDNAKNTVYLQMNRLKPEDTAVFYCAADKVQYEGDAYGPPQYDYWGQGTQVTVSS,low polyreactivity
15,QVPLVESGGGLVQAGGSLRLSCAASGRIFYFNDMGWYRQAPGKERELVAAISRSGGSTYYADSVKGRFTISRDNAKNTVYLQMNSLKPEDTAVYYCAAGRDTWPSTYYYWGQGTQVTVSS,low polyreactivity
16,QVQLVESGGGLVQAGGSLGLSCAASGRTFANNAMGWYRQAPGKERELVARISNSGSTNYADSVKGRFTISRDNAKNTVYLQMNSLKPEDTAVYDCAARIVRLYSRYDYWGQGTQETVSS,low polyreactivity
17,QVQLVESGGGLVQAGGSLRLSCAASGFTFYVNAMGWYRQAPGKEREFVAAISASGASTRYADSVKGRFTISRDNAKNTVYLQMNSLKPEDTAVYYCAADAPAWILEAYGYWGQGTQVTVSS,low polyreactivity
18,QVQLEESGGSLVQAAGSLRLSCAASGSIFSPYAMGWYRQAPGKERELVAAITWRGGTFYADSVKGRFTISRDNAKNTVDLQMNSLKPEDTAVYYCNARFGQTVKGTYGRYYYWGQGTHVTVSS,high polyreactivity
19,QVQLVESGGSLVKAGGSLRLSCAASGRIFGSNTIGWYRPEPGKERELVAAITSRGGSTYYADSVKGRFTISRDNAKNTVYLQMNSLKPEDTSVYYCAAKTVLFIFGYWGQGTQVSVSS,high polyreactivity
20,QVQLVESGGGLVQAGGSLRLSCAASGFTIIYYAMGWYRQAPGKERELVAAITDSGGSTYYADSVKGRFTISRDNAKNTVYLQMNSLKPEDTAVYYCAARLTCSRFYYWGQGTQVTVSS,high polyreactivity
21,QVQLEESGGGLVQAGGSLRLSCAASGRIFNTNAMGSYRQAPGKERELVAGITYSGDSTYYADSVKGRFTISRDNAKNTVYLQMNSLKPEDTAVYYCATDPASPYLYDYWGQGTQVTVSS,low polyreactivity
22,QVQLVESGGGLVQAGGSLRLSCAASGYTIESYGMGWYRQAPGKDREMVAAIDWSGGSTYYADSVKGRFTISRDNAKNTVYLQMNSLIPEDTAVYYCNRDSAGPGDVILAYTGNDYWGQGTQVTVSS,low polyreactivity
23,QVQLVESGGGLLRAGGSLRLICADSAFVNYVMGWYRQAPGKERELVAAISKGGGRTYYADSVKGRFTISRDNAKNTVYLQMNSLKPEVTAVYYCNADGGLPKYDYWGQGTQVTVSS,high polyreactivity
24,QVQLVESGGGLVQAGGSLRLSCAASGFIFRTYAMGWYRQAPGKERDLVAAISWRGGSTYYADSVKGRFTISRDNAKNTVYLQMNSLKPEDTAVYYCAKDTTRGVYRSWPKDMDYWGQGTQVTVSS,low polyreactivity
25,QVQLVESGGGLVQAGGSLRLSCAASGSIVGGYDMGWYRQAPGKERELVAVINSNGGSTYYADSVKGRFTISRDNANNTVYLQMNSLKPEDTAVYYCAADYESYVYIGYGYWGQGTQVTVSS,low polyreactivity
26,QVQLVESGGGLVQAGGSLRLSCAASGFIFAGYVMGWSRQAPGKERELVAAISSGGRTYYADSVKGRFTISRDNAKNTVYLQMNSLKPEDTAVYYCAAARWQVRATEGNYWGQGTQVTVSS,high polyreactivity
27,QVQLVESGGGLVQAGGSLRLSCAASGRTSRYYAMGWYRQAPGKERELVAAISSSGGNTYYADSVKGRFTISRDNAKNTVYLQMNSLKPEDTAVYYCNAYYPIRSSPYGYYYWGQGTQVTVSS,high polyreactivity
28,QVQLVESGGGLVQAGGSLRLSCAASGFIFSYYAMGWYRQAPGKERELVAAISGRGGSTYYADSVKGRFTISRDNEKNTVYLQMNSLKPEDTAVYYCAATTLRFYRHGDYWGQGTQVTVSS,low polyreactivity
29,QVQLVESGGGLVQAGGSLRLSCAASGRIFYPYAMGWYRQAPGKERELVAAISGSGARTYYADSVKGRFTISRDNAKHTVYLQMNSLKPEDTAVYYCARYQSNSDDYWGQGTQVTVSS,high polyreactivity
30,HAQLQESGGGLVQAGGSLRRSFAASGSIFRFSGMGWYRRAPGKERELVASIGFGSITYYADRVKGRFTISRDNANNTVYLQMNSLKPEDTAVYYCAVQVQDESWLDYWGQGTQVTVSC,low polyreactivity
